Test results published in the supplement of paper PMC10567573.

B1: PKD2L1 (parent)
chain: YSGGGYYLDLPGSRQGSAEALRAL

Variants of: B1
Assay: protein stability index of a GFP-peptide fusion (GPS, HEK-293T) (PSI 1-6); higher = more stable
Conditions: c terminus: a fixed tail appended
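Further: lentivirally expressed fusions sorted by FACS into six bins by GFP to DsRed ratio, PSI derived from sequencing read proportions per bin multiplied by bin number.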

Protein stability index, by site and new letter:
A18: T 1.35, Q 2.15, M 1.88, L 2.12, Y 1.75, C 2.16, R 1.71, D 2.65, P 1.79, G 1.81, W 1.61, N 1.86, H 1.61, K 2.75, V 1.49, E 1.71, F 1.57, S 1.5, I 1.55
Y6: Q 2.83, R 2.64, P 2.42, T 2.75, M 2.16, H 2.16, F 2.25, L 1.59, V 2.24, I 1.79, S 3.28, W 5.5, G 1.84, N 2.83, K 2.66
L10: D 2.02, Q 1.27, I 2.33, T 2.35, R 2.97, V 2.17, E 2.69, S 1.46, F 2.09, Y 1.81, G 1.56, K 1.73, H 1.58, N 1.6, W 1.14, M 1.66, P 1.9, C 2.31, A 2.27
L21: E 1.36, I 1.75, S 2.27, W 1.29, A 1.46, P 2.23, H 2.05, M 3.01, N 1.99, C 1.41, G 1.89, D 1.98, V 1.8, R 1.25, K 2.26, F 2.09, Y 1.91, Q 1.87, T 1.86
D9: Y 4.13, Q 1.24, T 3.34, R 2, F 3.62, M 3.33, S 1.83, I 3.81, E 2.01, N 2.46, W 2.87, L 4.93, H 1.95, A 4.81, P 1.66, G 3.74, K 2.59
L8: K 1.42, F 2.66, R 2.08, V 2.45, W 2.72, H 4.24, A 2.12, C 1.69, P 1.99, T 3.55, S 1.37, I 2.77, E 2.9, D 1.99, M 3.21, Y 2.03, N 1.73, Q 2.26, G 1.67
G12: R 1.59, A 2.05, Q 1.95, L 2.15, P 2.05, Y 1.49, T 1.88, W 2.39, V 2.22, N 2.36, K 1.74, H 1.96, M 2.54, I 1.55, F 1.57, C 1.24, D 2.09, E 2, S 2.21
R14: W 2.36, C 1.55, P 1.37, Y 2, S 1.57, I 2.55, G 2.24, T 2.15, D 1.82, Q 1.55, K 2.56, H 1.84, V 1.91, F 1.32, A 3.28, N 1.63, M 2.08, L 2.71, E 1.75
A23: T 2.24, L 1.73, H 2.09, K 1.72, R 2.26, M 2.03, P 2.19, I 1.66, N 2.05, V 2.45, C 1.59, F 2.52, Q 2.53, D 2.21, G 1.44, E 1.95, S 1.86, W 2.22
E19: S 1.49, F 2.33, V 1.89, T 1.77, I 1.45, M 2.09, Q 1.63, H 1.42, N 1.77, D 1.81, P 2.03, G 2.02, A 1.64, L 1.84, W 1.74, R 2.16, Y 2.23, K 1.98, C 2.27
A20: S 2.2, H 1.25, K 1.74, T 2.65, P 2.62, Y 1.76, I 1.37, F 2.64, L 1.72, C 3.77, M 1.81, V 1.6, N 2.02, D 1.86, W 2.36, R 1.29, G 1.66, Q 1.66
S13: W 1.78, I 1.25, T 1.82, L 1.5, P 1.85, Q 2.28, C 2.23, K 1.82, G 2.58, H 1.58, A 1.45, Y 1.96, V 2.3, D 1.12, E 1.61, R 2.38, N 1.38, M 2.4, F 1.92
S17: E 2, F 1.98, A 1.6, R 1.41, D 1.92, P 2.32, K 1.78, V 1.61, H 2.36, W 1.98, C 1.39, L 2.13, G 3.5, M 2.3, I 1.75, Y 2.03, Q 3.08, T 2, N 2.01
Q15: A 2.41, K 2.5, H 1.28, L 1.74, F 1.61, M 2.81, E 2.16, D 1.98, R 2.27, Y 2.17, V 2.99, W 1.73, I 3.59, N 1.94, T 1.21, S 1.83, C 3.34, P 2.03, G 1.47
G16: Q 2, F 1.38, A 1.94, H 2.66, N 1.51, E 1.92, I 2.3, Y 2.13, L 1.57, T 1.84, S 2.27, C 1.86, D 2.02, M 1.02, W 2.5, P 1.92, K 1.97, V 1.77, R 1.98
P11: W 2.52, D 1.21, E 1.29, G 3.43, T 1.86, I 1.94, S 1.73, H 1.44, N 1.97, R 3.15, Y 2, K 1.91, A 1.89, V 1.85, C 1.82, M 2.68, L 2.54, F 2.12, Q 2.53
R22: N 1.65, E 1.86, S 2.92, D 1.26, V 2.03, Q 1.5, I 3.18, W 3.79, T 1.82, Y 2.02, P 1.78, H 1.92, L 1.36, F 2.84, K 2.08, A 2.13, M 2.61, G 1.69, C 2.11
Y7: W 1.91, G 2.24, R 2.06, K 2.75, I 1.39, E 3.37, N 2.59, Q 2.4, P 2.96, A 2.17, L 1.66, F 1.56, S 3.21, M 1.61, D 3.25, C 1.93, H 2.26, V 2.21, T 2.71
